Holding throughout (test): cell-based or functional assay
Test [1] deals with recombinant hGM-CSF expressed in E. coli (Fa. Biomol #2514) (human) (UniProt P04141).
Test [2] deals with recombinant hGM-CSF from E. coli (Peprotech) (human) (UniProt P04141).
Test [3] addresses recombinant hGM-CSF derived from yeast (Leukine, Berlex) (human) (UniProt P04141).

recombinant hGM-CSF derived from yeast (Leukine, Berlex) (human), sequence (P04141 other isoform, or with tags, fused parts or gaps limits assumed, form in doubt): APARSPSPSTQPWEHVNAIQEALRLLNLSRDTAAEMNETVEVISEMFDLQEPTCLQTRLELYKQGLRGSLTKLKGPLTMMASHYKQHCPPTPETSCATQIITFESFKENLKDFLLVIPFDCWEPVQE
recombinant hGM-CSF from E. coli (Peprotech) (human), sequence (P04141 18-144 limits assumed): as the sequence (P04141 other isoform, or with tags, fused parts or gaps limits assumed, form in doubt) above, with L23R counted along it
recombinant hGM-CSF expressed in E. coli (Fa. Biomol #2514) (human), sequence (P04141 18-144 limits assumed): as the sequence (P04141 other isoform, or with tags, fused parts or gaps limits assumed, form in doubt) above, with L23R counted along it

For “rat-anti-human-GM-CSF IgG2a BVD2-21C11 (Fa. BD, #554503) (antibody)”, the IC50 in TF-1 assay, hGM-CSF (E. coli) at 1.0 ng/ml final concentration in test [1] came to 8.26 nM.

Regarding “human anti-human cytomegalovirus monoclonal antibody (hIgG)”, the TF-1 cell proliferation with 0.5 ng/mL rhGM-CSF (WST-1 assay) in test [2] and in test [3] was below 2 µg/mL in each case.

These data come from patent publication US20140205611A1.
